Key:
clinical [1] = details: human, in vivo, iv, total radioactivity
healthy volunteers [2] = tested on: healthy volunteers; parameters: species or system human; details: in vivo
Experimental: (§1) Applications of [^68Ga]Ga-Trivehexin in 3 healthy volunteers were done with written informed consent, and details of the volunteers were shown in Supplementary Table S2 . […] The PET scan was performed at 10 min, 35 min, and 60 min after intravenous injection, without repeated CT scans. Another PET/CT imaging sequence was obtained at 150 min post-injection, as the subject had to leave the scanner for voiding. Based on human PET data, the dosimetry values were calculated using OLINDA V2.2 to calculate organ doses and effective dose (as defined by International Commission on Radiological Protection publication 103) ([14]) using the International Commission on Radiological Protection publication 89 ([15]) adult human male and female models.

clinical [3] = details: human, in vivo, iv, total radioactivity; remark: listed apart in the source
Experimental: (§2) The clinical study was approved by Medical Ethics Committee, Zhongnan Hospital of Wuhan University and registered at ClinicalTrials.gov (NCT05835570). PET/CT imaging was performed using a Siemens-Biograph mCT PET/CT scanner (Siemens Healthineers, Erlangen, Germany). No special preparation was needed for [^68Ga]Ga-Trivehexin PET/CT. The injection dose was 87-122 MBq (70.7 MBq/mL, 90.9 MBq/nmol) and was determined on the basis of the patient’s weight (1.85 MBq/kg). PET/CT images were scanned from the top of the head to the upper thigh. PET data were obtained in a three-dimensional mode (matrix 200 × 200) of 6-8 bed positions (3 min/bed). Attenuation correction of PET images was performed using low-dose CT data. Image reconstruction was performed using the TrueX and time-of-flight (ultrahigh-definition PET) algorithms.
as §1

healthy volunteers [4] = test: clinical; details: human, in vivo, iv
Experimental: as §2, §1

[5] = Stability of [^68Ga]Ga-Trivehexin in formulation (PBS), radio-HPLC; type: physicochemical; details: Phosphate Buffer Saline, 2 h co-incubation of final product
Experimental: Radiochemical purity was evaluated by radio-HPLC and radio-TLC. For radio-HPLC, a mobile phase of H2O with 0.1% trifluoroacetic acid (TFA) (v/v, phase A) and acetonitrile with 0.1% TFA (v/v, phase B) was used with a flow rate of 1.0 mL/min and a linear elution gradient as follows: 0-5 min (0-95% A); 5-10 min (95-30% A);10-20 min (30-0% A). For radio-TLC, 0.4 M ammonium acetate solution/methanol (v/v, 1/1) (A) and 0.1 M citrate buffer (B) were used as mobile phases, respectively.
The stability of [^68Ga]Ga-Trivehexin in formulation and serum was further evaluated in Phosphate Buffer Saline (PBS) and Fetal Bovine Serum (FBS). After co-incubation of the final product with PBS or FBS for 60 or 120 min, radio-HPLC was used for the analysis.

CC(C)C[C@@H]1NC(=O)[C@H](CC(=O)O)NC(=O)CNC(=O)[C@H](CCCNC(=N)N)NC(=O)[C@H](Cc2ccc(O)cc2)NC(=O)[C@H](CCCCNC(=O)CCc2cn(CCCNC(=O)CCP(=O)(O)CN3CCN(CP(=O)(O)CCC(=O)NCCCn4cc(CCC(=O)NCCCC[C@H]5C(=O)N[C@@H](Cc6ccc(O)cc6)C(=O)N[C@@H](CCCNC(=N)N)C(=O)NCC(=O)N[C@@H](CC(=O)O)C(=O)N[C@@H](CC(C)C)C(=O)N[C@@H](C)C(=O)N[C@@H](Cc6ccc(O)cc6)C(=O)N6CCC[C@@H]6C(=O)N5C)nn4)CCN(CP(=O)(O)CCC(=O)NCCCn4cc(CCC(=O)NCCCC[C@H]5C(=O)N[C@@H](Cc6ccc(O)cc6)C(=O)N[C@@H](CCCNC(=N)N)C(=O)NCC(=O)N[C@@H](CC(=O)O)C(=O)N[C@@H](CC(C)C)C(=O)N[C@@H](C)C(=O)N[C@@H](Cc6ccc(O)cc6)C(=O)N6CCC[C@@H]6C(=O)N5C)nn4)CC3)nn2)N(C)C(=O)[C@H]2CCCN2C(=O)[C@H](Cc2ccc(O)cc2)NC(=O)[C@H](C)NC1=O [[^68Ga]Ga-Trivehexin, metal not drawn]
SUV at 0.25 h (clinical [1]; SUVmean ± SD Brain): 0.04 ± 0.01 SUV
SUV at 0.5 h (clinical [1]; SUVmean ± SD Brain): 0.03 ± 0.01 SUV
SUV at 0.25 h (clinical [1]; SUVmean ± SD Colon): 1.86 ± 0.31 SUV
SUV at 0.5 h (clinical [1]; SUVmean ± SD Colon): 1.52 ± 0.36 SUV
SUV at 2.5 h (clinical [1]; SUVmean ± SD Colon): 0.78 ± 0.16 SUV
SUV at 0.25 h (clinical [1]; SUVmean ± SD Eyes): 0.36 ± 0.04 SUV
SUV at 0.5 h (clinical [1]; SUVmean ± SD Eyes): 0.28 ± 0.14 SUV
SUV at 1 h (clinical [1]; SUVmean ± SD Eyes): 0.71 ± 0.28 SUV
SUV at 2.5 h (clinical [1]; SUVmean ± SD Eyes): 0.12 ± 0.03 SUV
SUV at 0.25 h (clinical [1]; SUVmean ± SD Fat tissue): 0.26 ± 0.03 SUV
SUV at 0.5 h (clinical [1]; SUVmean ± SD Fat tissue): 0.22 ± 0.03 SUV
SUV at 1 h (clinical [1]; SUVmean ± SD Fat tissue): 0.26 ± 0.02 SUV
SUV at 0.25 h (clinical [1]; SUVmean ± SD Kidney): 19.3 ± 1.13 SUV
SUV at 0.5 h (clinical [1]; SUVmean ± SD Kidney): 21.5 ± 1.28 SUV
SUV at 1 h (clinical [1]; SUVmean ± SD Kidney): 23.4 ± 2.38 SUV
SUV at 0.25 h (clinical [1]; SUVmean ± SD Liver): 1.68 ± 0.26 SUV
SUV at 0.5 h (clinical [1]; SUVmean ± SD Liver): 1.11 ± 0.23 SUV
SUV at 2.5 h (clinical [1]; SUVmean ± SD Liver): 0.65 ± 0.1 SUV
SUV at 0.25 h (clinical [1]; SUVmean ± SD Lung): 0.65 ± 0.03 SUV
SUV at 0.5 h (clinical [1]; SUVmean ± SD Lung): 0.58 ± 0.14 SUV
SUV at 1 h (clinical [1]; SUVmean ± SD Lung): 0.53 ± 0.05 SUV
SUV at 0.25 h (clinical [1]; SUVmean ± SD Muscle): 1.04 ± 0.1 SUV
SUV at 0.5 h (clinical [1]; SUVmean ± SD Muscle): 1.04 ± 0.01 SUV
SUV at 2.5 h (clinical [1]; SUVmean ± SD Muscle): 0.68 ± 0.1 SUV
SUV at 0.25 h (clinical [1]; SUVmean ± SD Myocardium): 1.69 ± 0.35 SUV
SUV at 0.5 h (clinical [1]; SUVmean ± SD Myocardium): 0.83 ± 0.13 SUV
SUV at 1 h (clinical [1]; SUVmean ± SD Myocardium): 0.52 ± 0.01 SUV
SUV at 0.25 h (clinical [1]; SUVmean ± SD Oral mucosa): 2.6 ± 0.38 SUV
SUV at 0.5 h (clinical [1]; SUVmean ± SD Oral mucosa): 2.28 ± 0.13 SUV
SUV at 1 h (clinical [1]; SUVmean ± SD Oral mucosa): 2.12 ± 0.43 SUV
SUV at 2.5 h (clinical [1]; SUVmean ± SD Oral mucosa): 1.59 ± 0.42 SUV
SUV at 0.25 h (clinical [1]; SUVmean ± SD Pancreas): 2.46 ± 0.12 SUV
SUV at 0.5 h (clinical [1]; SUVmean ± SD Pancreas): 1.47 ± 0.24 SUV
SUV at 1 h (clinical [1]; SUVmean ± SD Pancreas): 1.01 ± 0.11 SUV
SUV at 2.5 h (clinical [1]; SUVmean ± SD Pancreas): 1.13 ± 0.28 SUV
SUV at 0.25 h (clinical [1]; SUVmean ± SD Parotid gland): 2.31 ± 0.09 SUV
SUV at 0.5 h (clinical [1]; SUVmean ± SD Parotid gland): 1.19 ± 0.06 SUV
SUV at 1 h (clinical [1]; SUVmean ± SD Parotid gland): 1.01 ± 0.1 SUV
SUV at 0.25 h (clinical [1]; SUVmean ± SD Spinal Canal(C5)): 1.17 ± 0.15 SUV
SUV at 0.5 h (clinical [1]; SUVmean ± SD Spinal Canal(C5)): 0.62 ± 0.12 SUV
SUV at 2.5 h (clinical [1]; SUVmean ± SD Spinal Canal(C5)): 0.54 ± 0.15 SUV
SUV at 0.25 h (clinical [1]; SUVmean ± SD Spleen): 1.95 ± 0.12 SUV
SUV at 0.5 h (clinical [1]; SUVmean ± SD Spleen): 1.01 ± 0.06 SUV
SUV at 1 h (clinical [1]; SUVmean ± SD Spleen): 0.76 ± 0.01 SUV
SUV at 0.25 h (clinical [1]; SUVmean ± SD Thyroid gland): 3.41 ± 0.22 SUV
SUV at 0.5 h (clinical [1]; SUVmean ± SD Thyroid gland): 1.54 ± 0.29 SUV
SUV at 1 h (clinical [1]; SUVmean ± SD Thyroid gland): 1.37 ± 0.04 SUV
SUV at 2.5 h (clinical [1]; SUVmean ± SD Thyroid gland): 1.01 ± 0.37 SUV
Dose Adrenals (healthy volunteers [2]): 3.22E-02 mGy/MBq
Dose Brain (healthy volunteers [2]): 1.40E-03 mGy/MBq
Dose Esophagus (healthy volunteers [2]): 1.98E-02 mGy/MBq
Dose Eyes (healthy volunteers [2]): 4.25E-03 mGy/MBq
Dose Gallbladder Wall (healthy volunteers [2]): 2.09E-02 mGy/MBq
Dose Heart Wall (healthy volunteers [2]): 1.73E-02 mGy/MBq
Dose Kidneys (healthy volunteers [2]): 2.26E-01 mGy/MBq
Dose Left colon (healthy volunteers [2]): 1.88E-02 mGy/MBq
Dose Liver (healthy volunteers [2]): 1.58E-02 mGy/MBq
Dose Lungs (healthy volunteers [2]): 8.72E-03 mGy/MBq
Dose Osteogenic Cells (healthy volunteers [2]): 1.86E-02 mGy/MBq
Dose Pancreas (healthy volunteers [2]): 1.96E-02 mGy/MBq
Dose Prostate (healthy volunteers [2]): 1.77E-02 mGy/MBq
Dose Rectum (healthy volunteers [2]): 1.96E-02 mGy/MBq
Dose Red Marrow (healthy volunteers [2]): 1.16E-02 mGy/MBq
Dose Right colon (healthy volunteers [2]): 1.86E-02 mGy/MBq
Dose Salivary Glands (healthy volunteers [2]): 1.53E-02 mGy/MBq
Dose Small Intestine (healthy volunteers [2]): 1.78E-02 mGy/MBq
Dose Spleen (healthy volunteers [2]): 1.68E-02 mGy/MBq
Dose Stomach Wall (healthy volunteers [2]): 1.77E-02 mGy/MBq
Dose Testes (healthy volunteers [2]): 1.41E-02 mGy/MBq
Dose Thymus (healthy volunteers [2]): 1.31E-02 mGy/MBq
Dose Thyroid (healthy volunteers [2]): 1.96E-02 mGy/MBq
Dose Total Body (healthy volunteers [2]): 1.26E-02 mGy/MBq
Dose Urinary Bladder Wall (healthy volunteers [2]): 8.24E-02 mGy/MBq
Effective Dose (healthy volunteers [2]): 1.67E-02 mGy/MBq
effective dose in adrenals (healthy volunteers [2]): 3.22E-02 mSv/MBq
effective dose in kidneys (healthy volunteers [2]): 2.26E-01 mSv/MBq
effective dose in urinary bladder wall (healthy volunteers [2]): 8.24E-02 mSv/MBq
total body effective dose (healthy volunteers [2]): 1.67E-02 mSv/MBq
SUV at 1 h (clinical [3]; SUVmean ± SD Colon): 1.07 ± 0.21 SUV
SUV at 2.5 h (clinical [3]; SUVmean ± SD Fat tissue): 0.22 ± 0.1 SUV
SUV at 2.5 h (clinical [3]; SUVmean ± SD Kidney): 21.3 ± 2 SUV
SUV at 1 h (clinical [3]; SUVmean ± SD Liver): 0.82 ± 0.07 SUV
SUV at 2.5 h (clinical [3]; SUVmean ± SD Lung): 0.45 ± 0.13 SUV
SUV at 1 h (clinical [3]; SUVmean ± SD Muscle): 0.97 ± 0.1 SUV
SUV at 2.5 h (clinical [3]; SUVmean ± SD Myocardium): 0.5 ± 0.09 SUV
SUV at 2.5 h (clinical [3]; SUVmean ± SD Parotid gland): 0.97 ± 0.07 SUV
SUV at 1 h (clinical [3]; SUVmean ± SD Spinal Canal(C5)): 0.85 ± 0.13 SUV
SUV at 2.5 h (clinical [3]; SUVmean ± SD Spleen): 0.55 ± 0.07 SUV
SUVmean ± SD Brain (healthy volunteers [4]): 0.01 ± 0.00
intact tracer remained in PBS [5]: up to 98.9%
